Data on 3 molecules can be found in patent US20170128554A1 (NEW ENGLAND BIOLABS, published 2017).

Changes are numbered by the printed parent chain. Names may count otherwise.

Test [1] has as its target Sialylglycopeptide (SGP, Fushimi Pharmaceutical Co.). Nature of the test: isothermal titration calorimetry, […] (2 M NaCl), […].
Test [2] has the same target. Nature of the test: isothermal titration calorimetry, […] (50 mM NaCl), […].
For test [3], the target named is T1, SGP-TMR (sialylglycopeptide labeled with two tetramethylrhodamine fluorophores).
T1 construct: also called sialylated SGP
In words: SGP-TMR pull-down on Fbs beads, low salt volatile buffer, fluorescence. The method, then:
SNAP-Fbs is efficiently conjugated to BG beads (SNAP Capture Pull-Down resin (New England Biolabs, Ipswich, Mass.): SNAP-Fbs protein is reacted with BG beads at 4° C. overnight in a DTT-containing buffer (4 mM DTT, 20 mM tris-HCl pH 7.5, 1 mM EDTA, 50 mM NaCl). After the conjugation reaction, SNAP-Fbs beads are washed with 40× bead volume of low salt buffer.
Fbs binding to complex N-glycan linked glycomolecules is substantially unbiased in a high salt buffer. SGP was labeled with two tetramethylrhodamine (TMR) fluorophores on the peptide portion via lysine residues according to the TMR protein labeling kit protocol (Genaxxon Bioscience, Ulm Germany). After TMR labeling, a fraction of the SGP-TMR sample was processed with neuraminidase (New England Biolabs, Ipswich, Mass.) to remove terminal sialic acid residues. Two binding conditions (LS, low salt buffer and HS, high salt buffer) were tested. […] TMR Fluorescence in the supernatant was measured using a SpectraMax M5 fluorometer (excitation 555 nm and emission 595 nm with 590 nm cutoff). Binding of SGP-TMR to Fbs (y-axis) is determined by subtracting the fluorescence measured in the bead supernatant from the input fluorescence.
SGP-TMR affinity to the Fbs in low salt volatile buffer was analyzed by a pull-down assay using SNAP Capture Pull-Down resin conjugated with equal amounts of WT, GYR or PPRYR Fbs proteins (FIG. 10B). […]

B1: SNAP-Fbs (wild type Fbs sugar binding domain fused to SNAP-tag) (other)
chain: MGSSHHHHHHGDKDCEMKRTTLDSPLGKLELSGCEQGLHEIKLLGKGTSAADAVEVPAPAAVLGGPEPLMQATAWLNAYFHQPEAIEEFPVPALHHPVFQQESFTRQVLWKLLKVVKFGEVISYQQLAALAGNPAATAAVKTALSGNPVPILIPCHRVVSSSGAVGGYEGGLAVKEWLLAHEGHRLGKPGLGPAAIGAPGSGSGSPAGCQQEGLVPEGGVEEERDHWQQFYFLSKRRRNLLRNPCGEEDLEGWCDVEHGGDGWRVEELPGDSGVEFTHDESVKKYFASSFEWCRKAQVIDLQAEGYWEELLDTTQPAIVVKDWYSGRSDAGCLYELTVKLLSEHENVLAEFSSGQVAVPQDSDGGGWMEISHTFTDYGPGVRFVRFEHGGQDSVYWKGWFGARVTNSSVWVEP
notes: also called SNAP-wtFbs; wtFbs
With B1, the dissociation constant (Kd) worked out at 1430 nM in test [1] and 3000 nM in test [2].

B2: SNAP-tagged Fbs PPRYR mutant conjugated to BG beads (other)
chain: B1 chain with D271P, S272P, G273R, F290Y, E291R
Take B2: the “fold increased affinity, against WT Fbs” value in test [3] worked out at 2 fold.

B3: SNAP-tagged Fbs GYR mutant conjugated to BG beads (other)
chain: B1 chain with S272G, F290Y, E291R
notes: also called S155G+YR
For B3, in test [3], the “fold increased affinity, against WT Fbs” value is 3 fold.
